# According to patent US12448434B2, “Antibodies specifically recognizing Pseudomonas PcrV and uses thereof” (priority 2019, dated 2025):
# Assays:
# [1] = test system: P. aeruginosa (PA103 strain); assay: Mouse intraperitoneal infection model, antibody alone or combined with antibiotics, survival; type: in vivo, BALB/c mice; settings: antibody 5 mg/kg i.p. 24h before infection; 3*LD90; 5 days; FIG. 12A
# Method: The ability of the optimized anti-PcrV antibody 7B1 or 8C1 to improve survival in mouse intraperitoneal infection model was evaluated in comparison to antibiotics Meropenem, Tobramycin, Ciprofloxacin; and also in comparison to combination treatment of 7B1 or 8C1 with either antibiotic. HIV-10E8 was used as negative control.
# In a prophylactic model for anti-PcrV testing, 7-8 week old BALB/c mice (Vital River Laboratory) were intraperitoneally injected with antibody 24h before infection or with antibiotic 1h post infection. Specifically, the mice were administered with either optimized anti-PcrV antibody clone 7B1 or 8C1 (at 5 mg/kg), Meropenem (at 3 mg/kg), Tobramycin (at 10 mg/kg), Ciprofloxacin (at 30 mg/kg), or a combination of 7B1 or 8C1 with one of the antibiotics. To induce intraperitoneal infection, the BALB/c mice were intraperitoneally inoculated with P. aeruginosa (PA103 strain) suspended in a 300 μl inoculum at triple the lethal dose (3*LD90=7×10^5 CFU). Mouse survival was recorded for up to 5 days post-infection.
# [2] = test system: PcrV mutants (with mutations at position 225); assay: Binding to PcrV mutants with mutations at position 225; design: species or system Pseudomonas aeruginosa; settings: data not shown
# Method: To further illustrate the optimized antibodies could broadly neutralize P. aeruginosa strains, the abilities of these antibodies to bind various forms of PcrV mutants were tested. Briefly, 100 PcrV sequences were randomly selected from Genebank database. In contrast to the wild type sequence as shown in SEQ ID No: 71, 13% of the selected sequences contained R, G, or K at position 225 (as compared of S in the wild type sequence SEQ No: 71), which was the main mutation around the epitope of 7B1.
# These findings further illustrate that the optimized anti-PcrV antibodies could neutralize a broad spectrum of P. aeruginosa strains, which might express various forms of PcrV mutants.
# PcrV-negative A549 cells = assay: Cross-reactivity to PcrV-negative A549 cells by FACS; type: cell-based, human; settings: FIGS. 4A-4E, compared with no antibody and V2L2-MD
# Method: Cross-reactivity to A549 cells: Using FACS, parental antibody 13-42, optimized antibodies 7C1, 7B1, 8C1, 6D10 as well as V2L2-MD were tested for cross-reactivity to PcrV-negative A549 cells.
# [3] = test system: P. aeruginosa (PA103 strain); assay: Prophylactic mouse acute pneumonia model, survival; type: in vivo, BALB/c mice; settings: i.p. 24 h before infection, 1 or 10 mg/kg; 1*LD90 or 2*LD90; 7 days
# Method: The candidate anti-PcrV antibodies were assayed for the ability to improve survival in a mouse acute pneumonia model. In a prophylactic model, 7-8 week old BALB/c mice (Vital River Laboratory) were administered the candidate antibodies or PBS intraperitoneally (i.p.) 24 hr before infection, at doses of 1, 5, 10 or 25 mg/kg mouse weight. […] Mouse survival was recorded for up to 7 days post-infection.
# In a prophylactic model, 7-8 week old BALB/c mice (Vital River Laboratory) were administered with antibodies intraperitoneally (i.p.) 24 h before infection, at doses of 1 or 10 mg/kg mouse weight. […] Mouse survival was recorded for up to 7 days post-infection. The results were represented as Kaplan-Meier survival curves.
# mutated PcrV = assay: Epitope mapping: ELISA binding to alanine-scanning mutated PcrV; design: species or system P. aeruginosa
# Method: Using the discovery studio software, the predicted binding sites on PcrV for 7B1 and the optimized antibodies were identified, and the amino acid residues within the binding sites and in proximity to the binding sites were selected and subjected to alanine scanning. Subsequently, PcrV proteins carrying these selected mutations were expressed. The binding affinity of 7B1-IgG1 for each mutated PcrV protein was analyzed using ELISA. FIGS. 14A-14D show the ELISA binding curves of the antibodies for mutated PcrV, where mutation positions were according to sequence of SEQ ID NO: 71. As used herein, PcrV represents a His-tagged wild-type P. aeruginosa PcrV (PcrV-6His). Mutations at various positions of the amino acid sequence of the wild type PcrV were generated using alanine scanning as described above.
# [4] = test system: P. aeruginosa (O6-57/66 strain); assay: Prophylactic mouse intraperitoneal infection model, survival; type: in vivo, BALB/c mice; settings: 5 mg/kg antibody dose i.p. 24 h before infection; 3*LD90; 5 days
# Method: The ability of the optimized anti-PcrV antibodies 7C1, 7B1 and 8C1 to improve survival in a mouse intraperitoneal infection model was evaluated in comparison to parental 13-42 mAb. HIV-10E8 was used as negative control. The mouse intraperitoneal infection model was generated as described previously (See Warrener et al., 2014, Antimicrob. Agents Chemother., 58, 4384-4391).
# In a prophylactic model, 7-8 week old BALB/c mice (Vital River Laboratory) were administered antibodies by intraperitoneal (i.p.) injection 24 h before infection, at doses of 5 or 25 mg/kg mouse weight. To induce intraperitoneal infection, the BALB/c mice were intraperitoneally inoculated with P. aeruginosa (O6-57/66 strain) suspended in a 300 μl inoculum at triple the lethal dose (3*LD90=7×10^5 CFU). Mouse survival was recorded for up to 5 days post-infection.
# [5] = test system: P. aeruginosa strains O6-57/66, O11-PA103, O1-52/66 and O16-177/81; assay: A549 cell lysis inhibition, various strains (average); type: cell-based, Pseudomonas aeruginosa; settings: FIGS. 6A-6D
# Method: To assay for ability to inhibit cytotoxicity and cell lysis caused by P. aeruginosa, the candidate anti-PcrV antibodies were added to human bronchoepithelial cell line A549 or human histiocytic lymphoma cell line U937 seeded in white 96-well plates (Nunc Nunclon Delta) in DMEM plus 10% fetal bovine serum. Log-phase strain PA103(O11) P. aeruginosa was added at a multiplicity of infection (MOI) of 10 and incubated for 2 h at 37° C. and 5% CO2, followed by 20 minutes of equilibration at room temperature. Lactate dehydrogenase (LDH) released from lysed cells was quantified using the CytoTox-ONE kit (Promega), to assay membrane integrity. The relative amount of lysis inhibition was plotted accordingly. IC50 values for the antibodies were also determined.
# The optimized anti-PcrV mAb clones 7C1, 8C1, and 7B1 were analyzed for their abilities to inhibit A549 cell lysis by various strains of P. aeruginosa, namely strains O6-57/66, O11-PA103, O1-52/66 and O16-177/81, as compared to the parental 13-42 mAb. A549 cell lysis inhibition assay was performed as described in Example 2.
Molecule,survival improvement of antibody alone relative to Meropenem (3 mg/kg) [1],"binding to PcrV mutants with R, G or K at position 225 [2]",binding to PcrV-negative A549 cells (PcrV-negative A549 cells),survival improvement relative to parental 13-42 mAb [3],effect of PcrV mutation at position D165 on binding (mutated PcrV; FIG. 14C),effect of PcrV mutation at position Q160 on binding (mutated PcrV; FIG. 14C),effect of PcrV mutation at position D170 on binding (mutated PcrV; FIG. 14D),effect of PcrV mutation at position D173 on binding (mutated PcrV; FIG. 14D),effect of PcrV mutation at position S202 on binding (mutated PcrV; FIG. 14D),effect of PcrV mutation at position T175 on binding (mutated PcrV; FIG. 14D),survival improvement relative to parental 13-42 mAb [4],efficacy in inhibiting A549 lysis by four strains relative to parental 13-42 mAb [5]
"7B1: optimized anti-PcrV mAb clone; VH SEQ ID NO: 62, VL SEQ ID NO: 67 (antibody, V domains shown) VH: EVQLLESGGGLVQPGGSLRLSCTASGFTFSDNYMSWVRQAPGKGLDWVSVISESGGSTNYADSVKGRFSTSRDNSKSTLYLDMNSLRAEDTAIYYCAKGRFSTLSSHFFRAVYGMDVWGQGTAVTVSS VL: DIQLTQSPSSLSASVGDRVTITCRASQGISSYLAWYQQKPGKAPKLLIYAASTLQSGVPSRFSGSGSGTDFTLTISSLQPEDFATYYCQQLSSYPLTFGGGTKVEIK",better or comparable survival improvement,strongly bind these mutants,similarly low levels of A549 binding,comparable or better survival improvements,affected binding,significantly affected binding,affected binding,affected binding,affected binding,affected binding,comparable or better survival improvement,comparable efficacy in inhibiting A549 lysis
"8C1: optimized anti-PcrV mAb clone; VH SEQ ID NO: 51, VL SEQ ID NO: 67 (antibody, V domains shown) VH: EVQLLESGGGLVQPGGSLRLSCTASGFTFSDNHMSWVRQAPGKGLDWVSGISESGGSTNYADSVKGRFSTSRDNSKSTLYLDMNSLRAEDTAIYYCAKGRFSTNSAHFFRAVYGMDVWGQGTAVTVSS VL: DIQLTQSPSSLSASVGDRVTITCRASQGISSYLAWYQQKPGKAPKLLIYAASTLQSGVPSRFSGSGSGTDFTLTISSLQPEDFATYYCQQLSSYPLTFGGGTKVEIK",,strongly bind these mutants,similarly low levels of A549 binding,,,,,,,,,comparable efficacy in inhibiting A549 lysis
"7C1: optimized anti-PcrV mAb clone; VH SEQ ID NO: 52, VL SEQ ID NO: 65 (antibody, V domains shown) VH: EVQLLESGGGLVQPGGSLRLSCTASGFTFSDNHMSWVRQAPGKGLDWVSGISESGGSTNYADSVKGRFSTSRDNSKSTLYLDMNSLRAEDTAIYYCAKGRFSTSSSHFYRAVYGMDVWGQGTAVTVSS VL: DIQLTQSPSSLSASVGDRVTITCRASQGISSYLAWYQQKPGKAPKLLIYAASTLQSGVPSRFSGSGSGTDFTLTISSLQPEDFATYYCQQLSSYPLSFGGGTKVEIK",,strongly bind these mutants,similarly low levels of A549 binding,comparable or better survival improvements,,,,,,,comparable or better survival improvement,comparable efficacy in inhibiting A549 lysis
